Results published in article PMC3057327 (Methods (San Diego, Calif.), 2011).

What was measured:
[1] = biological target: the molecule itself; experiment: sedimentation assay
[2] = biological target: the molecule itself; experiment: aggregates isolated by centrifugation + limited proteolysis

**Q.** Does KKQQQQQQQQQQQQQQQQQQQQQQQKK [K2Q23K2] bind [1]?
**A.** binds

**Q.** Does MATLEKLMKAFESLKSFQQQQQQQQQQQQQQQQQQQQPPPPPPPPPPKK [htt^NTQ20P10K2 (huntingtin N-terminal fragment peptide)] bind [2]?
**A.** binds
